Measured values taken from US20230357348A1 (AstraZeneca / MedImmune, published 2023).
Starred links: 1 amine or outer side, 2 acyl side, 3 side chain; linkers in the order of their positions; H or OH if unused. Non-standard residues stand in square brackets, D forms with d. Groups on a side chain read outwards from the residue. No end group written: not given here. *: point of attachment. β‑dimethylGln = β-dimethylglutamine, CC(C)(CC(N)=O)[C@H](N[*:1])C(=O)[*:2]; C20 diacid = O=C(O)CCCCCCCCCCCCCCCCCCC(=O)*; C18 diacid = O=C(O)CCCCCCCCCCCCCCCCC(=O)*; γGlu = O=C(O)[C@H](CCC(=O)[*:2])N[*:1]; αMeF = C[C@](N)(Cc1ccccc1)C(=O)O; AEEA = NCCOCCOCC(=O)O; Aib = CC(C)(N)C(=O)O

B1: Peptide 296 (peptide)
peptide: H[Aib]HGS[αMeF]TSDVSK[Aib]LDSRAAK([AEEA-AEEA-γGlu-C18 diacid])D[αMeF]VQ[Aib]IANT-NH2
modifications: N-terminus assumed
SMILES: CC[C@H](C)[C@H](NC(=O)C(C)(C)NC(=O)[C@H](CCC(N)=O)NC(=O)[C@@H](NC(=O)[C@](C)(Cc1ccccc1)NC(=O)[C@H](CC(=O)O)NC(=O)[C@H](CCCCNC(=O)COCCOCCNC(=O)COCCOCCNC(=O)CC[C@H](NC(=O)CCCCCCCCCCCCCCCCC(=O)O)C(=O)O)NC(=O)[C@H](C)NC(=O)[C@H](C)NC(=O)[C@H](CCCNC(=N)N)NC(=O)[C@H](CO)NC(=O)[C@H](CC(=O)O)NC(=O)[C@H](CC(C)C)NC(=O)C(C)(C)NC(=O)[C@H](CCCCN)NC(=O)[C@H](CO)NC(=O)[C@@H](NC(=O)[C@H](CC(=O)O)NC(=O)[C@H](CO)NC(=O)[C@@H](NC(=O)[C@](C)(Cc1ccccc1)NC(=O)[C@H](CO)NC(=O)CNC(=O)[C@H](Cc1c[nH]cn1)NC(=O)C(C)(C)NC(=O)[C@@H](N)Cc1c[nH]cn1)[C@@H](C)O)C(C)C)C(C)C)C(=O)N[C@@H](C)C(=O)N[C@@H](CC(N)=O)C(=O)N[C@H](C(N)=O)[C@@H](C)O
B2: Peptide 298 (peptide)
peptide: H[Aib]HGS[αMeF]TSDVSR[αMeF]LDSRAAK([AEEA-AEEA-γGlu-γGlu-C20 diacid])D[αMeF]VQ[Aib]IANT-NH2
modifications: N-terminus assumed
SMILES: CC[C@H](C)[C@H](NC(=O)C(C)(C)NC(=O)[C@H](CCC(N)=O)NC(=O)[C@@H](NC(=O)[C@](C)(Cc1ccccc1)NC(=O)[C@H](CC(=O)O)NC(=O)[C@H](CCCCNC(=O)COCCOCCNC(=O)COCCOCCNC(=O)CC[C@H](NC(=O)CC[C@H](NC(=O)CCCCCCCCCCCCCCCCCCC(=O)O)C(=O)O)C(=O)O)NC(=O)[C@H](C)NC(=O)[C@H](C)NC(=O)[C@H](CCCNC(=N)N)NC(=O)[C@H](CO)NC(=O)[C@H](CC(=O)O)NC(=O)[C@H](CC(C)C)NC(=O)[C@](C)(Cc1ccccc1)NC(=O)[C@H](CCCNC(=N)N)NC(=O)[C@H](CO)NC(=O)[C@@H](NC(=O)[C@H](CC(=O)O)NC(=O)[C@H](CO)NC(=O)[C@@H](NC(=O)[C@](C)(Cc1ccccc1)NC(=O)[C@H](CO)NC(=O)CNC(=O)[C@H](Cc1c[nH]cn1)NC(=O)C(C)(C)NC(=O)[C@@H](N)Cc1c[nH]cn1)[C@@H](C)O)C(C)C)C(C)C)C(=O)N[C@@H](C)C(=O)N[C@@H](CC(N)=O)C(=O)N[C@H](C(N)=O)[C@@H](C)O
B3: Peptide 300 (peptide)
peptide: H[Aib]HGS[αMeF]TSDVSK[αMeF]LDSRAAK([AEEA-AEEA-γGlu-C18 diacid])D[αMeF]VQ[Aib]IAET-NH2
modifications: N-terminus assumed
SMILES: CC[C@H](C)[C@H](NC(=O)C(C)(C)NC(=O)[C@H](CCC(N)=O)NC(=O)[C@@H](NC(=O)[C@](C)(Cc1ccccc1)NC(=O)[C@H](CC(=O)O)NC(=O)[C@H](CCCCNC(=O)COCCOCCNC(=O)COCCOCCNC(=O)CC[C@H](NC(=O)CCCCCCCCCCCCCCCCC(=O)O)C(=O)O)NC(=O)[C@H](C)NC(=O)[C@H](C)NC(=O)[C@H](CCCNC(=N)N)NC(=O)[C@H](CO)NC(=O)[C@H](CC(=O)O)NC(=O)[C@H](CC(C)C)NC(=O)[C@](C)(Cc1ccccc1)NC(=O)[C@H](CCCCN)NC(=O)[C@H](CO)NC(=O)[C@@H](NC(=O)[C@H](CC(=O)O)NC(=O)[C@H](CO)NC(=O)[C@@H](NC(=O)[C@](C)(Cc1ccccc1)NC(=O)[C@H](CO)NC(=O)CNC(=O)[C@H](Cc1c[nH]cn1)NC(=O)C(C)(C)NC(=O)[C@@H](N)Cc1c[nH]cn1)[C@@H](C)O)C(C)C)C(C)C)C(=O)N[C@@H](C)C(=O)N[C@@H](CCC(=O)O)C(=O)N[C@H](C(N)=O)[C@@H](C)O
B4: Peptide 324 (peptide)
peptide: HS[β‑dimethylGln]GS[αMeF]TSDVSK[αMeF]LDSRAAK([AEEA-AEEA-γGlu-C18 diacid])D[αMeF]VQ[Aib]IANT-NH2
modifications: N-terminus assumed
SMILES: CC[C@H](C)[C@H](NC(=O)C(C)(C)NC(=O)[C@H](CCC(N)=O)NC(=O)[C@@H](NC(=O)[C@](C)(Cc1ccccc1)NC(=O)[C@H](CC(=O)O)NC(=O)[C@H](CCCCNC(=O)COCCOCCNC(=O)COCCOCCNC(=O)CC[C@H](NC(=O)CCCCCCCCCCCCCCCCC(=O)O)C(=O)O)NC(=O)[C@H](C)NC(=O)[C@H](C)NC(=O)[C@H](CCCNC(=N)N)NC(=O)[C@H](CO)NC(=O)[C@H](CC(=O)O)NC(=O)[C@H](CC(C)C)NC(=O)[C@](C)(Cc1ccccc1)NC(=O)[C@H](CCCCN)NC(=O)[C@H](CO)NC(=O)[C@@H](NC(=O)[C@H](CC(=O)O)NC(=O)[C@H](CO)NC(=O)[C@@H](NC(=O)[C@](C)(Cc1ccccc1)NC(=O)[C@H](CO)NC(=O)CNC(=O)[C@@H](NC(=O)[C@H](CO)NC(=O)[C@@H](N)Cc1c[nH]cn1)C(C)(C)CC(N)=O)[C@@H](C)O)C(C)C)C(C)C)C(=O)N[C@@H](C)C(=O)N[C@@H](CC(N)=O)C(=O)N[C@H](C(N)=O)[C@@H](C)O

Molecular target: human GLP-1 receptor (human, UniProt P43220 24-463)
Experiment: cell-based or functional assay

Binder	hGLP-1R EC50 (pM), cAMP [pM]
H[Aib]HGS[αMeF]TSDVSK[αMeF]LDSRAAK([AEEA-C20 diacid])D[αMeF]VQ[Aib]IANT-NH2 [Peptide 278]	78.9
H[Aib]HGS[αMeF]TSDVSK[αMeF]LDSRAAK([AEEA-γGlu-γGlu-C20 diacid])D[αMeF]VQ[Aib]IANT-NH2 [Peptide 279]	86.5
H[Aib]HGS[αMeF]TSDVSK[αMeF]LDSRAAK([AEEA-AEEA-γGlu-C20 diacid])D[αMeF]VQ[Aib]IANT-NH2 [Peptide 280]	78.3
H[Aib]HGS[αMeF]TSDVSK[αMeF]LDSRAAK([AEEA-AEEA-γGlu-γGlu-C20 diacid])D[αMeF]VQ[Aib]IANT-NH2 (also: S2: Aib per table, X6: αMePhe, F per table) [Peptide 282]	1230
H[Aib]HGS[αMeF]TSDVSKYLDSRAAK([AEEA-AEEA-γGlu-γGlu-C20 diacid])D[αMeF]VQ[Aib]IANT-NH2 (also: F6: αMePhe per table, X13: αMePhe, Y per table) [Peptide 283]	129
HSHGS[αMeF]TSDVSK[αMeF]LDSRAAK([AEEA-AEEA-γGlu-C18 diacid])D[αMeF]VQ[Aib]IANT-NH2 (not fully specified; also: S2: Aib per table) [Peptide 285]	301
H[Aib]HGS[αMeF]TSDVSKYLDSRAAK([AEEA-AEEA-γGlu-C18 diacid])D[αMeF]VQ[Aib]IANT-NH2 (also: F6: αMePhe per table, X13: αMePhe, Y per table) [Peptide 286]	31.6
H[Aib]HGS[αMeF]TSDVSK[αMeF]LDSRAAK([AEEA-AEEA-γGlu-C18 diacid])DFVQ[Aib]IANT-NH2 (not fully specified; also: Y13: αMePhe per table) [Peptide 287]	27.5
H[Aib]HGS[αMeF]TSDVSK[αMeF]LDSRAAK([AEEA-AEEA-γGlu-C18 diacid])D[αMeF]VQWIANT-NH2 (not fully specified; also: F22: αMePhe per table) [Peptide 288]	42.7
H[Aib]HGS[αMeF]TSDVSKYLDSRAAKDFVQWIANT-NH2 (not fully specified (residue 20); also: F6: αMePhe per table) [Peptide 292]	28.7
B1	64.1
B2	75.5
B3	19.7
H[Aib]HGS[αMeF]TSDVSK[αMeF]LDSRAAK([AEEA-AEEA-γGlu-γGlu-C20 diacid])D[αMeF]IA[Aib]IAET-NH2 [Peptide 302]	151
H[Aib]HGS[αMeF]TSDVSK[αMeF]LDSRAAK([AEEA-AEEA-γGlu-γGlu-C20 diacid])D[αMeF]VQ[Aib]IANT-OH [Peptide 304]	239
H[Aib]HGS[αMeF]TSDVSK[αMeF]LDSRAAK([AEEA-AEEA-γGlu-γGlu-C20 diacid])D[αMeF]VQ[Aib]IANT-NH2 (not fully specified) [Peptide 305]	211
H[Aib]QGTFTSDVSK[αMeF]LDSRAAK([AEEA-AEEA-γGlu-C18 diacid])DFVQ[Aib]LVAT-NH2 (not fully specified) [Peptide 315]	18.1
H[Aib]QGTFTSDVSK[αMeF]LDSRAAK([AEEA-AEEA-γGlu-C18 diacid])DFVQWIANT-NH2 (not fully specified) [Peptide 318]	55.2
H[Aib]QGS[αMeF]TSDVSK[αMeF]LDSRAAK([AEEA-AEEA-γGlu-γGlu-C20 diacid])D[αMeF]VQ[Aib]IANT-NH2 [Peptide 322]	68.3
B4	1330

Molecular target: human glucagon receptor (human, UniProt P47871 26-477)
Sequence (P47871 26-477): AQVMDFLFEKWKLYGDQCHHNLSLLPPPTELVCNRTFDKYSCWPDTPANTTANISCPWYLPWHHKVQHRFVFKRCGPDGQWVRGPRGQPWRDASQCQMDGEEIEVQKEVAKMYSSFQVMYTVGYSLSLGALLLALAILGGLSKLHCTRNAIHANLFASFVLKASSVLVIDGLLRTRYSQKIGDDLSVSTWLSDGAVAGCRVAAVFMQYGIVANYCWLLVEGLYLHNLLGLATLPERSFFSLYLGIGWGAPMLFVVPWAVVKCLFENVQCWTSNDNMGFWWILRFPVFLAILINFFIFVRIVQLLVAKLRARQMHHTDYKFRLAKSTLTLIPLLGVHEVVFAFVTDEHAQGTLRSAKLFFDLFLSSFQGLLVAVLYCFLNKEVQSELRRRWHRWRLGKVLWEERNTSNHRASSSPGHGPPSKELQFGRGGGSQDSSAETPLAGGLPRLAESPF
Experiment: cell-based or functional assay

Binder	hGluc-R EC50 (pM), cAMP [pM]
H[Aib]HGS[αMeF]TSDVSK[αMeF]LDSRAAK([AEEA-C20 diacid])D[αMeF]VQ[Aib]IANT-NH2 [Peptide 278]	83.5
H[Aib]HGS[αMeF]TSDVSK[αMeF]LDSRAAK([AEEA-γGlu-γGlu-C20 diacid])D[αMeF]VQ[Aib]IANT-NH2 [Peptide 279]	150
H[Aib]HGS[αMeF]TSDVSK[αMeF]LDSRAAK([AEEA-AEEA-γGlu-C20 diacid])D[αMeF]VQ[Aib]IANT-NH2 [Peptide 280]	155
H[Aib]HGS[αMeF]TSDVSK[αMeF]LDSRAAK([AEEA-AEEA-γGlu-γGlu-C20 diacid])D[αMeF]VQ[Aib]IANT-NH2 (also: S2: Aib per table, X6: αMePhe, F per table) [Peptide 282]	1140
H[Aib]HGS[αMeF]TSDVSKYLDSRAAK([AEEA-AEEA-γGlu-γGlu-C20 diacid])D[αMeF]VQ[Aib]IANT-NH2 (also: F6: αMePhe per table, X13: αMePhe, Y per table) [Peptide 283]	552
HSHGS[αMeF]TSDVSK[αMeF]LDSRAAK([AEEA-AEEA-γGlu-C18 diacid])D[αMeF]VQ[Aib]IANT-NH2 (not fully specified; also: S2: Aib per table) [Peptide 285]	87
H[Aib]HGS[αMeF]TSDVSKYLDSRAAK([AEEA-AEEA-γGlu-C18 diacid])D[αMeF]VQ[Aib]IANT-NH2 (also: F6: αMePhe per table, X13: αMePhe, Y per table) [Peptide 286]	53
H[Aib]HGS[αMeF]TSDVSK[αMeF]LDSRAAK([AEEA-AEEA-γGlu-C18 diacid])DFVQ[Aib]IANT-NH2 (not fully specified; also: Y13: αMePhe per table) [Peptide 287]	26.5
H[Aib]HGS[αMeF]TSDVSK[αMeF]LDSRAAK([AEEA-AEEA-γGlu-C18 diacid])D[αMeF]VQWIANT-NH2 (not fully specified; also: F22: αMePhe per table) [Peptide 288]	26.9
H[Aib]HGS[αMeF]TSDVSKYLDSRAAKDFVQWIANT-NH2 (not fully specified (residue 20); also: F6: αMePhe per table) [Peptide 292]	20.4
B1	3250
B2	573
B3	18.4
H[Aib]HGS[αMeF]TSDVSK[αMeF]LDSRAAK([AEEA-AEEA-γGlu-γGlu-C20 diacid])D[αMeF]IA[Aib]IAET-NH2 [Peptide 302]	271
H[Aib]HGS[αMeF]TSDVSK[αMeF]LDSRAAK([AEEA-AEEA-γGlu-γGlu-C20 diacid])D[αMeF]VQ[Aib]IANT-OH [Peptide 304]	687
H[Aib]HGS[αMeF]TSDVSK[αMeF]LDSRAAK([AEEA-AEEA-γGlu-γGlu-C20 diacid])D[αMeF]VQ[Aib]IANT-NH2 (not fully specified) [Peptide 305]	155
H[Aib]QGTFTSDVSK[αMeF]LDSRAAK([AEEA-AEEA-γGlu-C18 diacid])DFVQ[Aib]LVAT-NH2 (not fully specified) [Peptide 315]	5850
H[Aib]QGTFTSDVSK[αMeF]LDSRAAK([AEEA-AEEA-γGlu-C18 diacid])DFVQWIANT-NH2 (not fully specified) [Peptide 318]	12000
H[Aib]QGS[αMeF]TSDVSK[αMeF]LDSRAAK([AEEA-AEEA-γGlu-γGlu-C20 diacid])D[αMeF]VQ[Aib]IANT-NH2 [Peptide 322]	> 24700
B4	1930
